According to patent publication US20190225669A1 (ACCELERON PHARMA, published 2019):
Where two headings read alike, the source gives them in different places. Each block holds one binder with its values, some of them ahead of it.

B2: BMPRII-Fc homodimer (Fc fusion, UniProt Q13873 27-150, looked up, not shown: a dimerising Fc or GST)
chain: SQNQERLCAFKDPYQQDLGIGESRISHENGTILCSKGSTCYGLWEKSKGDINLVKQGCWSHIGDPQECHYEECVVTTTPPSIQNGTYRFCCCSTDLCNVNFTENFPPPDTTPLSPPHSFNRDET
notes: extracellular domain

Tests used:
ActRIIB-Fc homodimer [1] = target: T1, ActRIIB-Fc homodimer (UniProt Q13705 19-137); experiment: Biacore SPR
T1 construct: extracellular domain; also called ActRIIB homodimer
T1 sequence (looked up): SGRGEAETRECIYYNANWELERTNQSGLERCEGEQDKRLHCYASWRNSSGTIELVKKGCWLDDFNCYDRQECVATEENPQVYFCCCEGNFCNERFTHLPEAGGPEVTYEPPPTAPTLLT
Method: (§1) Ligands were injected and allowed to flow over the captured receptor protein.

ActRIIB-Fc homodimer [2] = target: T1, ActRIIB-Fc homodimer; experiment: Biacore SPR; remark: listed apart in the source
Method: as §1

ALK3-Fc homodimer = target: T2, ALK3-Fc homodimer (UniProt P36894 24-152); experiment: Biacore SPR
T2 construct: extracellular domain
T2 sequence (P36894 24-152): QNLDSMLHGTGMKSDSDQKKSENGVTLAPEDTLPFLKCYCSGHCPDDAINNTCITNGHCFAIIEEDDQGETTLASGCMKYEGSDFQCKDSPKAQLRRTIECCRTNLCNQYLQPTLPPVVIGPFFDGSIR
Method: as §1

ActRIIB-Fc homodimer [3] = target: T1, ActRIIB-Fc homodimer; experiment: Biacore SPR; remark: listed apart in the source
Method: as §1

ActRIIB-Fc homodimer [4] = target: T1, ActRIIB-Fc homodimer; experiment: Biacore SPR; remark: listed apart in the source
Method: as §1

ActRIIB-Fc homodimer [5] = target: T1, ActRIIB-Fc homodimer; experiment: Biacore SPR; remark: listed apart in the source
Method: as §1

BMPRII-Fc homodimer = target: B2; experiment: Biacore SPR; kinetics indeterminate (transient)
Method: as §1

BMP15 [6] = target: T3, BMP15 (UniProt O95972 268-392); experiment: Biacore SPR
T3 construct: also called GDF9b
T3 sequence (looked up): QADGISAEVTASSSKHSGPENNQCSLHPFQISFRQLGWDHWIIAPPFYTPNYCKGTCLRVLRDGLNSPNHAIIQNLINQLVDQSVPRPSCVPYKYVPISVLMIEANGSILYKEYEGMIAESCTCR
Method: as §1

BMP5 = target: T4, BMP5 (UniProt P22003 317-454, limits assumed); experiment: Biacore SPR
T4 sequence (looked up): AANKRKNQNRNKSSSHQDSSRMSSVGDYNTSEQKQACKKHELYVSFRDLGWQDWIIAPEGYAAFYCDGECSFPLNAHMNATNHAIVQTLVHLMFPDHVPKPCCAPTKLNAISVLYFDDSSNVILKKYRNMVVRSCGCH
Method: (§2) A Biacore™-based binding assay was used to compare ligand binding selectivity of the BMPRII-Fc:ALK2-Fc heterodimeric complex described above with that of BMPRII-Fc and ALK2-Fc homodimeric complexes. […] Ligands were injected and allowed to flow over the captured receptor protein.

BMP15 [7] = target: T3, BMP15; experiment: Biacore SPR; remark: listed apart in the source
Method: as §2

BMP15 [8] = target: T3, BMP15; experiment: Biacore SPR; remark: listed apart in the source
Method: as §1

BMP15 [9] = target: T3, BMP15; experiment: Biacore SPR; remark: listed apart in the source
Method: as §1

BMP7 [10] = target: T5, BMP7 (UniProt P18075 293-431); experiment: Biacore SPR; kinetics indeterminate (transient)
T5 sequence (looked up): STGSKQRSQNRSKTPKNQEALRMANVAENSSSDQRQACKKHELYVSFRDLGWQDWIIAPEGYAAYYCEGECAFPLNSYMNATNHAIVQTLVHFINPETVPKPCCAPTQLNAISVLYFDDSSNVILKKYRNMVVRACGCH
Method: as §2

BMP6 = target: T6, BMP6 (UniProt P22004 382-513, limits assumed); experiment: Biacore SPR; kinetics indeterminate (transient)
T6 sequence (looked up): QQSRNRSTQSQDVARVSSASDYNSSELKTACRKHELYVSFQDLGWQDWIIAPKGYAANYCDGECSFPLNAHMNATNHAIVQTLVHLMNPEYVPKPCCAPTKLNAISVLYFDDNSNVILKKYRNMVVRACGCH

BMP7 [11] = target: T5, BMP7; experiment: Biacore SPR; kinetics indeterminate (transient); remark: listed apart in the source

- Kd (ActRIIB-Fc homodimer [1]): 0.019 nM
- koff (ActRIIB-Fc homodimer [1]): 0.00023 s⁻¹
- kon (ActRIIB-Fc homodimer [1]): 1.2e+07 M⁻¹ s⁻¹
- Kd (ActRIIB-Fc homodimer [2]): 0.011 nM
- koff (ActRIIB-Fc homodimer [2]): 0.00014 s⁻¹
- kon (ActRIIB-Fc homodimer [2]): 1.3e+07 M⁻¹ s⁻¹
- binding result (ALK3-Fc homodimer): no binding
- Kd (ActRIIB-Fc homodimer [3]): 0.011 nM
- koff (ActRIIB-Fc homodimer [3]): 0.00014 s⁻¹
- kon (ActRIIB-Fc homodimer [3]): 1.3e+07 M⁻¹ s⁻¹
- Kd (ActRIIB-Fc homodimer [4]): 0.015 nM
- koff (ActRIIB-Fc homodimer [4]): 0.00017 s⁻¹
- kon (ActRIIB-Fc homodimer [4]): 1.2e+07 M⁻¹ s⁻¹
- Kd (ActRIIB-Fc homodimer [5]): 0.019 nM
- koff (ActRIIB-Fc homodimer [5]): 0.00023 s⁻¹
- kon (ActRIIB-Fc homodimer [5]): 1.2e+07 M⁻¹ s⁻¹
- Kd (BMPRII-Fc homodimer): > 43 nM
B1: activin A (ligand, UniProt P08476 311-426, looked up)
chain: GLECDGKVNICCKKQFFVSFKDIGWNDWIIAPSGYHANYCEGECPSHIAGTSGSSLSFHSTVINHYRMRGHSPFANLKSCCVPTKLRPMSMLYYDDGQNIIKKDIQNMIVEECGCS

Binder: B2
- Kd (BMP15 [6]): 0.29 nM
- koff (BMP15 [6]): 0.0028 s⁻¹
- kon (BMP15 [6]): 9.9e+06 M⁻¹ s⁻¹
- Kd (BMP5): 9.9 nM
- koff (BMP5): 0.019 s⁻¹
- kon (BMP5): 1.9e+06 M⁻¹ s⁻¹
- Kd (BMP15 [7]): 0.72 nM
- koff (BMP15 [7]): 0.0042 s⁻¹
- kon (BMP15 [7]): 5.8e+06 M⁻¹ s⁻¹
- Kd (BMP15 [8]): 0.29 nM
- koff (BMP15 [8]): 0.0028 s⁻¹
- kon (BMP15 [8]): 9.9e+06 M⁻¹ s⁻¹
- Kd (BMP15 [9]): 0.29 nM
- koff (BMP15 [9]): 0.0028 s⁻¹
- kon (BMP15 [9]): 9.9e+06 M⁻¹ s⁻¹
- Kd (BMP7 [10]): > 93 nM
- Kd (BMP6): > 8.9 nM
- Kd (BMP7 [11]): > 38 nM
